In experiment [1] the target is T1, hASCT2 receptor (human type 2 sodium-dependent neutral amino acid transporter) (human, UniProt Q15758 1-541).
T1 construct: whole, on cells
T1 sequence: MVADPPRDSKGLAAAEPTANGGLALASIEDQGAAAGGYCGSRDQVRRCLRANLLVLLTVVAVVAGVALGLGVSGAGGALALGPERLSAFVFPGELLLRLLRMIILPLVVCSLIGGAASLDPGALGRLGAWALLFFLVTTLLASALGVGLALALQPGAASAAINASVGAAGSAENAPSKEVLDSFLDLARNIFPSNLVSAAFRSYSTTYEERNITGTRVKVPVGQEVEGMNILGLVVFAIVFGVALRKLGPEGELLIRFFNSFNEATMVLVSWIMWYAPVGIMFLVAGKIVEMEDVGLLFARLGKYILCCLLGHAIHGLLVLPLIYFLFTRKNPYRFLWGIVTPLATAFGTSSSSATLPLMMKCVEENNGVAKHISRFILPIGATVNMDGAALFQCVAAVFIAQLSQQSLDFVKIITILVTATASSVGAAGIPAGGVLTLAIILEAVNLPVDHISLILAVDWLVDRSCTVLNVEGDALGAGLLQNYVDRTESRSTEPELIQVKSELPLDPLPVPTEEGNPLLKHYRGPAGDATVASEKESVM
The experiment in a line: flow cytometry on XChASCT2 cells, anti-RGS-His detection.

In the next experiment the target is T2, hASCT1 receptor (human, UniProt P43007 1-532).
T2 construct: whole, on cells
T2 sequence: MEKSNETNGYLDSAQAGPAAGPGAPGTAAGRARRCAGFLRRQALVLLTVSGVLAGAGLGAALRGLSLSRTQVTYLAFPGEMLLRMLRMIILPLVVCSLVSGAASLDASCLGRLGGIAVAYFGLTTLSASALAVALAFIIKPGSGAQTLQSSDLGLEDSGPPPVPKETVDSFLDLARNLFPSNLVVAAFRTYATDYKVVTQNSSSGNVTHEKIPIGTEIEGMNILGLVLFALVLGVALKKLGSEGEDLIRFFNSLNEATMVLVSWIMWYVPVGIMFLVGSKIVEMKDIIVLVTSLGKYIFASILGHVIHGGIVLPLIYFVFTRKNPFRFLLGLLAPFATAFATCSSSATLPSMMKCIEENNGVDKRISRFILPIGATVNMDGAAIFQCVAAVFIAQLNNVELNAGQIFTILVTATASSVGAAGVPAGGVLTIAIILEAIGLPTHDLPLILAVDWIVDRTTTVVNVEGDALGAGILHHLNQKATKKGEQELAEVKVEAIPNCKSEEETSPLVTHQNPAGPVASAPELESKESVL
The experiment in a line: flow cytometry on XChASCT1 cells, anti-RGS-His detection.

The target of experiment [2] is T1, hASCT2 receptor (human type 2 …). The experiment in a line: flow cytometry on XChASCT2 cells and on TE671 and TE671galv cells, anti-RGS-His detection.

The results in this text go back to patent publication US20160090402A1 (BIOMERIEUX, published 2016).

B1: soluble recombinant envelope protein Env-Gp60 (Gp60, 1-435) (ligand)
chain: not shown
notes: range 21-435; Used as filtered HEK293T supernatant; the construct is printed as 1-435; also called soluble envelope
On to B1, for which, in experiment [1], the binding result is listed as “binds”.

B2: soluble recombinant SU subunit of the HERV-W envelope (EnvSU, 1-317) (ligand)
chain: APPPCRCMTSSSPYQEFLWRMQRPGNIDAPSYRSLSKGTPTFTAHTHMPRNCYHSATLCMHANTHYWTGKMINPSCPGGLGVTVCWTYFTQTGMSDGGGVQDQAREKHVKEVISQLTRVHGTSSPYKGLDLSKLHETLRTHTRLVSLFNTTLTGLHEVSAQNPTNCWICLPLNFRPYVSIPVPEQWNNFSTEINTTSVLVGPLVSNLEITHTSNLTCVKFSNTTYTTNSQCIRWVTPPTQIVCLPSGIFFVCGTSAYRCLNGSSESMCFLSFLVPPMTIYTEQDLYSYVISKPAAARRGSHHHHHH
notes: range 21-317; Used as filtered HEK293T supernatant; also called soluble SU; SU subunit (1-317)
B2: the binding result (with hASCT1 receptor; in experiment [2]) was “binds” each time.
